≈ marks a conversion by molar mass, not a printed value. Read-outs that look alike come from different tables or passages of the source.
How the values were obtained:
[1] = system: MRSA strain NRS 384; assay: Methicillin resistance development under stepwise methicillin exposure; format: cell-based; settings: Staphylococcus aureus, read-out: Methicillin MIC after adaptation, NRS 384
Description: ALAFAC and Methicillin Resistance Development. Experiments were designed to test the impact of ALAFAC on the adaptation of MRSA to methicillin in liquid cultures, and to test ALAFAC's potential to inhibit resistance increase during antibiotic pressure. […]

[2] = system: NRS 384 Staphylococci; assay: Radioisotope 45Ca2+ transport assay; format: cell-based, Staphylococcus aureus; settings: ALAFAC addition, Ruthenium Red 30 μM
Procedure: Radioisotope ^45Ca^2+ transport assays. Staphylococcus aureus was grown to log phase, washed three times and resuspended in 1×PBS containing 0.5 mM CaCl2 (CaPBS). No glucose was added in order to minimize the interference created by extrusion of Ca^2+ via ATPase pumps. ^45CaCl2 (PerkinElmer; Waltham, Mass., USA) was added to the cells at a final concentration of 2.5 μCi/mL, followed by inhibitor compound, with each addition given two minutes equilibration time. The untreated baseline sample was measured at this point. The sample was then divided, ALAFAC was added to one of the tubes, and ^45Ca^2+ uptake was measured at various intervals. For each sample, 100 μL was dispensed onto Millipore 0.3 μm PHWP filters (EMD Millipore; Billerica, Mass., USA) presoaked in CaPBS, and immediately washed with 9 mL of CaPBS via syringe filtration through Millipore Swinnex® filter holders. Filters were placed in scintillation vials with 5 mL of scintillation fluid, and CPMs were detected on a Wallac 1409 liquid scintillation counter (Wallac Oy, Turku, Finland). The results were expressed as ΔCPM that was calculated for each sample at the indicated time points as the difference between ALAFAC-treated and untreated samples.

[3] = system: Staphylococci; assay: Bactericidal activity of ALAFAC alone; format: cell-based
[4] = system: Escherichia coli; assay: Bactericidal activity of ALAFAC alone; format: cell-based
[5] = system: Staphylococci; settings: concentrations up to 5 mg/ml; cited from earlier work
[6] = system: Bacillus subtilis; settings: concentrations up to 5 mg/ml; cited from earlier work
[7] = system: Escherichia coli; settings: concentrations up to 5 mg/ml; cited from earlier work
[8] = system: Moraxella catarrhalis; settings: 2 mg/ml; cited from earlier work

| Molecule | MIC ([1]; 8 cycles with increasing methicillin, no ALAFAC) [mg/L] | MIC ([1]; 10 cycles in methicillin plus ALAFAC 100 μg/mL (6 μM), MIC tested without ALAFAC) [mg/L] | Intracellular Ca2+ (45Ca2+ uptake) [2] | Concentration of ALAFAC not triggering death [3] | Concentration of ALAFAC not triggering death [4] | Bactericidal activity [5] | Bactericidal activity [6] | Bactericidal activity [7] | Reduction of bacteria [8] |
| --- | --- | --- | --- | --- | --- | --- | --- | --- | --- |
| COc1cccc(OC)c1C(=O)N[C@@H]1C(=O)N2[C@@H]1SC(C)(C)[C@@H]2C(=O)O [Methicillin, methicillin] | 512 (≈ 1350 µM) | 64 |  |  |  |  |  |  |  |
| ALAFAC: non-covalent complex of alpha-lactalbumin and fatty acid (oleic acid); labeled HAMLET or HL in drawings and tables (protein, UniProt P00709 20-142, looked up, complexed with oleic acid) Alpha-lactalbumin: KQFTKCELSQLLKDIDGYGGIALPELICTMFHTSGYDTQAIVENNESTEYGLFQISNKLWCKSSQVPQSRNICDISCDKFLDDDITDDIMCAKKILDIKGIDYWLAHKALCTEKLEQWLCEKL |  |  | rose immediately | exceeding 1,000 μg/ml | exceeding 1,000 μg/ml | no detectable activity | no detectable activity | no detectable activity | less than 90% |
